Experimental data: publication PMC8683389, “The monofunctional CO dehydrogenase CooS is essential for growth of Thermoanaerobacter kivui on carbon monoxide” (Extremophiles, 2021)

Molecular target: the molecule itself
Assay: SEC; analytical size exclusion on a calibrated Superdex 200 column, buffer B, size standards 43-440 kDa; oligomeric state of the purified complex

B1: His-CooSF1 complex of Thermoanaerobacter kivui (complex)
chain 1: MSDNYIYSAEKVIDELSRKPGFVDTAIKRWEKRDPKCGFGYKGICCRLCSNGPCRITPTQPVGICGATADTIVARNLLRAIAAGTSCYVHHCRNAANTLLSVAEGKSSYTIKDEEKLKKYAKKMGINTNKDIKRIAYEFATRVLNDLSKPYTEKAELVEKLSLPARVSTWKSLNIMPGGVNEEIIAALTKTSTNLNSDPVDMAVHCLRLGIITGIYGLELTCIMQDILLGSPKIASTYSNFGVIDQGYINLATIGGHQQVVSNRILEMASSKEWVKKAQEAGAKGFKIYGVTCVGQDYELRCASDKNSAFGGYVGNNFTQEYILGTGAIDLVFSEFNCTLPGIEPICKEYLVKQICLDDVAKKVGADLYQFQPEKADEYAAITLDEAIKAYKNRRGKVKIDVPTEKTPAMTGFTEDSIKGALGGSWKLLIDLIVKGDIKGVAGVVGCSNMAAKGHGIYGVELTKELIKRDILVLGNGCVGGNLENAGLYGLESIELAGPKLKEVCRKLNIPPVLNIGPCLSIGRIHIIAEEIAEELKVDVPQIPVVASAPQWLEEQALADGTFGVVLGLDLLLGTPPAVTGSNLITELLTSKLKDMVGARFIIEADPILGADAMESSIMERRKLLNI
chain 2: MDVKSGTKYIFADIKKCLGCRCCEQACADANGNRPYWELLGSGIPLSPNINILYIFLQDKNYPVMAQAVCRQCEDAPCVKICPVKAISVNPDGIKVIDKQRCIGCHSCSIVCPFGAVYIPDKHAVATKCTLCIERKGAEGQPACVEACPNGALQLVDTKEIGREKVKKIVSDTFSNK
notes: as the chain of m1; as the chain of m2; Written as the CooS-CooF1 unit; also called His-CooFS1; source: T. kivui pMU131_His-cooS, purified (Ni2+-NTA, Superdex 200); not shown: 10 x His, N-terminal, kept
stoichiometry N: 6
